Data on four variants can be found in IntAct's records for PubMed 16778768.

B1: High osmolarity signaling protein SHO1 (Saccharomyces cerevisiae), P40073 (parent)
chain: MSISSKIRPTPRKPSRMATDHSFKMKKFYADPFAISSISLAIVSWVIAIGGSISSASTNESFPRFTWWGIVYQFLIICSLMLFYCFDLVDHYRIFITTSIAVAFVYNTNSATNLVYADGPKKAAASAGVILLSIINLIWILYYGGDNASPTNRWIDSFSIKGIRPSPLENSLHRARRRGNRNTTPYQNNVYNDAIRDSGYATQFDGYPQQQPSHTNYVSSTALAGFENTQPNTSEAVNLHLNTLQQRINSASNAKETNDNSNNQTNTNIGNTFDTDFSNGNTETTMGDTLGLYSDIGDDNFIYKAKALYPYDADDDDAYEISFEQNEILQVSDIEGRWWKARRANGETGIIPSNYVQLIDGPEEMHR
partner: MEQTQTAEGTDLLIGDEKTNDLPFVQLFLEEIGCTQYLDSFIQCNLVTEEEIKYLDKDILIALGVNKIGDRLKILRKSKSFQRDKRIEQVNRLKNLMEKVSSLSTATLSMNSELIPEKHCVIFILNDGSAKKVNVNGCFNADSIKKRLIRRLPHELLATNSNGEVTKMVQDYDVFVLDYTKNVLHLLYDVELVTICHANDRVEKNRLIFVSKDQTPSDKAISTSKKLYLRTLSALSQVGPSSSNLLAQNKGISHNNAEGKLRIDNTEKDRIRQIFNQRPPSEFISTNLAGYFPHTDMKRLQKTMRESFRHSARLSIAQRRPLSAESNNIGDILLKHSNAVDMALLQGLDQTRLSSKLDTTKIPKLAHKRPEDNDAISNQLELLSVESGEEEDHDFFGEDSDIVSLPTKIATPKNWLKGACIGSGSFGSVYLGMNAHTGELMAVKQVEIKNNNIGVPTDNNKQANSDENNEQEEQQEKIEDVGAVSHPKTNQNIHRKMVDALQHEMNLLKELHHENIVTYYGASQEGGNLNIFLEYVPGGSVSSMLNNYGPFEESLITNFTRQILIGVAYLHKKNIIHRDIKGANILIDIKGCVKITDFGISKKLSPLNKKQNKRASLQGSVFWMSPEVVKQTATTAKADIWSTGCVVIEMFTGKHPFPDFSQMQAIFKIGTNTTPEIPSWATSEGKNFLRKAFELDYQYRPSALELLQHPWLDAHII
B2: High osmolarity signaling protein SHO1 (Saccharomyces cerevisiae), P40073 (parent)
chain: B1 chain
partner: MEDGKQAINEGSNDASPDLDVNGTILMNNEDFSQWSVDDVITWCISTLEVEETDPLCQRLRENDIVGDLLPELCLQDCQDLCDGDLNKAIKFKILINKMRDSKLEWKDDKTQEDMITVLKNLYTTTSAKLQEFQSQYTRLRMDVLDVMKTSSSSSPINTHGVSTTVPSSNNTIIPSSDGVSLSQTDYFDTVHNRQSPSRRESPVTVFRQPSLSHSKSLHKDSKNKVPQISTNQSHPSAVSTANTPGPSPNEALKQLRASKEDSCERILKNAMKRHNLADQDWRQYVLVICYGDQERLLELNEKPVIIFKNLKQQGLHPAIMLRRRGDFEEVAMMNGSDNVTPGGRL

Variants of B1 are the subject of one assay. The following applies: with ste11_yeast STE11, P23561.
Consider R342G, for which the “effect of a mutation on the interaction” value is recorded as “increasing interaction”.

As for G346S, the “effect of a mutation on the interaction” value is reported as “increasing interaction”.

Variants of B2 are the subject of the next assay. The settings on record: with ste50_yeast STE50, P25344.
R342G: the “effect of a mutation on the interaction” value is on record as “increasing interaction”. Still for that read-out and setting: then G346S, with “increasing interaction”.
